We go through one molecule from patent US20160368979A1 (CHEMOMAB, published 2016).

One assay addresses T1, RANTES (CCL5), human (human, UniProt P13501 24-91).
T1 sequence: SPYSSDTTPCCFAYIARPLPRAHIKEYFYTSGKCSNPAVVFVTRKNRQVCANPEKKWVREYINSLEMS
Kind of assay: cell-based or functional assay.

Assay [1] addresses T2, Eotaxin 2 (CCL24), human (human, UniProt O00175 27-119).
T2 sequence: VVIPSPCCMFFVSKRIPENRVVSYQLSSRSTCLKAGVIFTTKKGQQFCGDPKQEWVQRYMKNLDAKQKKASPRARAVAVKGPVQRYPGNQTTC
Description: cell-based or functional assay.

The target in another assay is Eotaxin 1 (CCL11), human (human, UniProt P51671 24-97). Description: cell-based or functional assay.
Eotaxin 1 (CCL11), human, sequence (P51671 24-97): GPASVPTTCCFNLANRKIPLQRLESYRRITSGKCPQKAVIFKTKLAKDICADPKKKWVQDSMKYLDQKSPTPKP
The target in assay [2] is T2, Eotaxin 2 (CCL24), human. Description: Biacore SPR (eotaxin 2 immobilised on CM-5 chip) and ELISA. Here is the method:
The affinity constant of hCM101 or murine CM101 was evaluated using Biacore T100. This method uses Surface Plasmon Resonance (SPR) electrooptical phenomenon to measure the binding constants and on/off rates between binding partners. Eotaxin 2 was covalently immobilized on a surface of a CM-5 chip, and a solution of CM101 was passed over the surface. The changes in SPR angle were measured and enabled to determine the KD.
(In SPR one partner is held on a chip, and binding of the other changes the refractive index at the surface.)

B1: hCM101 (fully humanized anti-eotaxin-2 monoclonal antibody, humanized variant VH1/VK3) (antibody, human IgG1, V domains shown)
VH: QIQLVQSGPELKKPGASVKVSCRASGYPFTNSGMNWVKQAPGKGLKWMGWINTYNGEPTYTDDFKGRFAFSLETSASTAYLQINNLRNEDTATYFCASHSYGSSYAMDNWGQGTSVTVSS
VL: DIVLTQSPDSLAVSLGERATINCKASQSVDYDGDSYMNWYQQKPGQPPKLLIYVASNLKSGIPARFSGSGSGTDFTLTISSLQPEDFATYYCQQSNEEPWTFGGGTKVEIK
notes: also called VH1/K3; fully humanized CM101
As for B1, the “migration of CD14 negative cells towards Eotaxin 1, 2 and Rantes, % reduction at the high dose” value with RANTES (CCL5), human is about 90%; with Eotaxin 2 (CCL24), human [1] it was about 90%; with Eotaxin 1 (CCL11), human it was about 90%. In the assay with Eotaxin 2 (CCL24), human [2], the Kd – broadly, the equilibrium constant for the complex coming apart – came to 3 nM.
